From patent publication US20110256557A1, “IDENTIFYING PARATHYROID HORMONE AGONISTS AND ANTAGONISTS” (DISCOVERYBIOMED, INC., priority 2008, published 2011)

T1: PTH1R (Homo sapiens, UniProt Q03431)
T1 sequence (Q03431 27-593): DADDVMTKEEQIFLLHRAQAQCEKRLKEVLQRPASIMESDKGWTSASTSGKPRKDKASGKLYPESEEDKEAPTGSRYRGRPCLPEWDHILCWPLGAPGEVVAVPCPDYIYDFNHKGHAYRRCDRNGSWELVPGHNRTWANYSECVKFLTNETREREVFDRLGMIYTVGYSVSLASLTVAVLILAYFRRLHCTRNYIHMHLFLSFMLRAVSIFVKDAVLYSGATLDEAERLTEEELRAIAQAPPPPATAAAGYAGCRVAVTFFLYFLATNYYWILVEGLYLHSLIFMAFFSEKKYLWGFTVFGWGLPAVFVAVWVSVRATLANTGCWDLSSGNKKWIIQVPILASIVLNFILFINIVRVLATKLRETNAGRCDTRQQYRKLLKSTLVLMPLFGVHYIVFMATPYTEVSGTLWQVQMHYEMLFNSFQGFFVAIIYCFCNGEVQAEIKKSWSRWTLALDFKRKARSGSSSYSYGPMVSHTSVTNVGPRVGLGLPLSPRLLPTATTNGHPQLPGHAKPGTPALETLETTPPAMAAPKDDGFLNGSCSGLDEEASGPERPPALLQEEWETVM


What was measured:
β-catenin in osteoblasts = test: Immunohistochemistry of β-catenin in bone sections after single-dose injection, rats; format: in vivo, rat; conditions: for positive staining of β-catenin in osteoblasts: five month-old rats, single i.v. dose 40 μg/kg, 8 hours after injection
Description: For the experiments in which rats or mice were administered PTH as single-dose injection, five-month-old male Sprague Dawley rats (Charles River Laboratories; Wilmington, Mass.) or two-month-old male C57BL/J6 mice (Jackson Laboratory; Bar Harbor, Me.) (6 per group) were administered a single dose of either vehicle (1 mM acetic acid in sterile PBS) or PTH (1-34) (Bachem Inc.; Torrance, Calif.) at 40 μg/kg in a volume of 100 μl. In the mouse model, mouse recombinant Wnt3a (R&D Systems; Minneapolis, Minn.) was injected at 25 μg/kg in a volume of 100 μl. All treatments were through bolus intravenous injection via the tail vein. Rats/mice were sacrificed at 0.5, 2, 8 and 24 hours after injection.
Formalin-fixed femur or tibia tissue sections of 5 μm thickness from rats or mice were processed with antigen retrieval and hydrogen peroxide treatment prior to incubation with primary monoclonal antibody specific for β-catenin (BD Biosciences; San Jose, Calif.), goat polyclonal antibody sclerostin (R&D Systems; Minneapolis, Minn.) or rabbit polyclonal phosphorylated LRP6 (Ab1490) for 1 hour at room temperature or overnight at 4° C. Negative controls were obtained by replacing the primary antibodies with irrelevant control isotype IgG. […] In the rat model, numbers of total osteoblasts and numbers of β-catenin- or p-LRP6-positive osteoblasts were counted in three random high power fields at metaphysis subjacent to the epiphyseal growth plates or the diaphyseal hematopoietic bone marrow per specimen, and a total of six specimens in each group were used. In the mouse model, numbers of total osteoblasts and numbers of β-catenin-positive osteoblasts were counted in three random high power fields in a 2-mm square, 1 mm distal to the lowest point of the growth plate in the secondary spongiosa. Numbers of total osteocytes and numbers of sclerostin-positive osteocytes were counted in three random high power fields per trabecular bone section or cortical bone section, and a total of six specimens in each group were used.

[1] = system: luciferase reporter bearing TCF/LEF binding elements; test: TCF/LEF luciferase reporter assay in UMR-106 cells; format: cell-based, rat; conditions: UMR-106 cells treated with PTH
Text: HEK293, UMR-106 and mouse embryonic fibroblast (MEF) cells were maintained in Dulbecco's Modified Eagle Medium (DMEM) with 10% Fetal Calf Serum (FCS). Mouse Wnt3a conditioned medium (Wnt3a CM) was produced from mouse L cells stably transfected with mouse Wnt3a (American Type Culture Collection; Manassas, Va.) and control conditioned medium (Control CM) was from non-transfected L cells. IgG, LRP6N-IgG, DKK1, Sclerostin, VSVG-LRP6N and Myc-Fz8CRD conditioned media were produced from HEK 293 cells transfected with the individual plasmids. Transfections were carried out using lipofectamine reagent (Invitrogen; Carlsbad, Calif.). Luciferase assays were carried out in either UMR-106 or HEK 293 cells as described previously (Wan et al., Am. J. Pathol. 166:1379-92 (2005)), with 0.3 μg of TCF-Luc reporter plasmid plus 50 ng of Renilla luciferase plasmid (internal control) per well in the 12-well plate. Experiments were repeated at least three times with triplicate for each experiment.

β-catenin = test: Western blot of cytosolic β-catenin in HEK 293 cells; format: cell-based; conditions: for effect on PTH-elevated β-catenin level (accumulation in cytosol/cytoplasm): PTH-treated cells (FIG. 5 cells not stated; FIG. 10, 27 HEK293)
Description: (§1) Cells were harvested in cavitation buffer (5 mM HEPES, pH 7.4, 3 mM MgCl2, 1 mM EGTA, 250 mM sucrose) containing protease and phosphatase inhibitors and homogenized by nitrogen cavitation (200 p.s.i., for 5 minutes) in a cell disruption bomb (Parr Instrument Co.; Moline, Ill.). The cell homogenate was centrifuged twice at 700 g for 10 minutes to pellet the nuclei. The supernatant was further centrifuged at 100,000 g (Beckman SW50.1 rotor) for 1 hour to separate the membrane and cytosol fractions, and the resulting membrane pellet was washed three times with cavitation buffer before use in the assays (Zhang et al., Biochem. J. 343:541-9 (1999)). Immunoprecipitation and Western blot analysis of cell lysates were performed as described previously (Wan et al., Am. J. Pathol. 166:1379-92 (2005)).

PTH1R = molecular target: T1, PTH1R; test: Co-immunoprecipitation of exogenous LRP5/LRP6 constructs with PTH1R in HEK293 cells; format: cell-based; conditions: co-expressed with PTH1R in HEK293 cells
Text: PTH1R tagged with HA was subcloned into pcDNA3.1. cDNAs from human LRP5 (Mao et al., Mol. Cell. 7:801-9 (2001)) and LRP6 (Tamai et al., Nature 407:530-35 (2000)) tagged with HA and VSVG were subcloned into pCMV and pCS2^+, respectively. LRP6N+T (LRP6 N-terminal plus the transmembrane domain) and LRP6T+C (LRP6 transmembrane domain plus C-terminal) tagged with VSVG were subcloned into pCS2^+. LRP6N+1479m, LRP6N+1490m, LRP6N+1493m and LRP6N+1496m were generated by mutagenesis of either the serine (at amino acid 1490 or amino acid 1496) or threonine (at amino acid 1479 or amino acid 1493) to alanine LRP6N-IgG was generated by fusing the LRP6 extracellular domain with IgG (Tamai et al., Nature 407:530-35 (2000)). si-GFP (Wan et al., Am. J. Pathol. 166:1379-92 (2005)) and si-LRP6 plasmids were generated using a BS/U6 vector. Briefly, a 22-nucleotide oligo (oligo 1) corresponding to nucleotides 2981 to 3002 of the human LRP6 coding region was first inserted into the BS/U6 vector digested with ApaI (blunted) and HindIII. The inverted motif that contains the six-nucleotide spacer and five Ts (oligo 2) was then subcloned into the HindIII and EcoRI sites of the intermediate plasmid to generate BS/U6/LRP5/6.
as §1

Molecule	effect on PTH-stimulated TCF/LEF luciferase (transcriptional) activity [1]	effect on PTH-elevated β-catenin level (accumulation in cytosol/cytoplasm) (β-catenin)	binding of LRP6 construct to PTH1R (IP assay) (PTH1R)	other results
PTH (1-34): C-terminal-truncated synthetic analog of PTH with an anabolic effect on bone formation in humans (SVSEIQLMHNLGKHLNSMERVEWLRKKLQDVHNF; Parathyroid hormone; UniProt P01270 32-65, looked up, fragment)				positive staining of β-catenin in osteoblasts (β-catenin in osteoblasts; diaphyseal bone marrow): about 90.24±0.68%; positive staining of β-catenin in osteoblasts (β-catenin in osteoblasts; metaphysis subjacent to the epiphyseal growth plates): 99.08±0.57%; expression of β-catenin in preosteoblasts and osteoblasts on the bone surface (β-catenin in osteoblasts; rats, single dose, trabecular bone, within hours): induced
DKK1: secreted protein binding to LRP6 at the extracellular domain (protein, UniProt O94907 32-266, looked up) Dickkopf-related protein 1: TLNSVLNSNAIKNLPPPLGGAAGHPGSAVSAAPGILYPGGNKYQTIDNYQPYPCAEDEECGTDEYCASPTRGGDAGVQICLACRKRRKRCMRHAMCCPGNYCKNGICVSSDQNHFRGEIEETITESFGNDHSTLDGYSRRTTLSSKMYHTKGQEGSVCLRSSDCASGLCCARHFWSKICKPVLKEGQVCTKHRRKGSHGLEIFQRCYCGEGLSCRIQKDHHQASNSSRLHTCQRH	disrupted	disrupted		effect on Wnt3a-elevated β-catenin level (β-catenin; Wnt3a-treated cells (FIG. 5 cells not stated; FIG. 27 HEK293)): reduced
LRP6T+C: truncated LRP6 containing the transmembrane and intracellular domains, tagged with VSVG (protein, left off: small tags and cut ends, truncated LRP6 containing the transmembrane and intracellular domains, tagged with VSVG) TNTVGSVIGVIVTIFVSGTVYFICQRMLCPRMKGDGETMTNDYVVHGPASVPLGYVPHPSSLSGSLPGMSRGKSMISSLSIMGGSSGPPYDRAHVTGASSSSSSSTKGTYFPAILNPPPSPATERSHYTMEFGYSSNSPSTHRSYSYRPYSYRHFAPPTTPCSTDVCDSDYAPSRRMTSVATAKGYTSDLNYDSEPVPPPPTPRSQYLSAEENYESCPPSPYTERSYSHHLYPPPPSPCTDSS			could barely be detected	
LRP6N+T: truncated LRP6 containing the extracellular and transmembrane domains, tagged with VSVG (protein, left off: small tags and cut ends, truncated LRP6 containing the extracellular and transmembrane domains, tagged with VSVG) APLLLYANRRDLRLVDATNGKENATIVVGGLEDAAAVDFVFSHGLIYWSDVSEEAIKRTEFNKTESVQNVVVSGLLSPDGLACDWLGEKLYWTDSETNRIEVSNLDGSLRKVLFWQELDQPRAIALDPSSGFMYWTDWGEVPKIERAGMDGSSRFIIINSEIYWPNGLTLDYEEQKLYWADAKLNFIHKSNLDGTNRQAVVKGSLPHPFALTLFEDILYWTDWSTHSILACNKYTGEGLREIHSDIFSPMDIHAFSQQRQPNATNPCGIDNGGCSHLCLMSPVKPFYQCACPTGVKLLENGKTCKDGATELLLLARRTDLRRISLDTPDFTDIVLQLEDIRHAIAIDYDPVEGYIYWTDDEVRAIRRSFIDGSGSQFVVTAQIAHPDGIAVDWVARNLYWTDTGTDRIEVTRLNGTMRKILISEDLEEPRAIVLDPMVGYMYWTDWGEIPKIERAALDGSDRVVLVNTSLGWPNGLALDYDEGKIYWGDAKTDKIEVMNTDGTGRRVLVEDKIPHIFGFTLLGDYVYWTDWQRRSIERVHKRSAEREVIIDQLPDLMGLKATNVHRVIGSNPCAEENGGCSHLCLYRPQGLRCACPIGFELISDMKTCIVPEAFLLFSRRADIRRISLETNNNNVAIPLTGVKEASALDFDVTDNRIYWTDISLKTISRAFMNGSALEHVVEFGLDYPEGMAVDWLGKNLYWADTGTNRIEVSKLDGQHRQVLVWKDLDSPRALALDPAEGFMYWTEWGGKPKIDRAAMDGSERTTLVPNVGRANGLTIDYAKRRLYWTDLDTNLIESSNMLGLNREVIADDLPHPFGLTQYQDYIYWTDWSRRSIERANKTSGQNRTIIQGHLDYVMDILVFHSSRQSGWNECASSNGHCSHLCLAVPVGGFVCGCPAHYSLNADNRTCSAPTTFLLFSQKSAINRMVIDEQQSPDIILPIHSLRNVRAIDYDPLDKQLYWIDSRQNMIRKAQEDGSQGFTVVVSSVPSQNLEIQPYDLSIDIYSRYIYWTCEATNVINVTRLDGRSVGVVLKGEQDRPRAVVVNPEKGYMYFTNLQERSPKIERAALDGTEREVLFFSGLSKPIALALDSRLGKLFWADSDLRRIESSDLSGANRIVLEDSNILQPVGLTVFENWLYWIDKQQQMIEKIDMTGREGRTKVQARIAQLSDIHAVKELNLQEYRQHPCAQDNGGCSHICLVKGDGTTRCSCPMHLVLLQDELSCGEPPTCSPQQFTCFTGEIDCIPVAWRCDGFTECEDHSDELNCPVCSESQFQCASGQCIDGALRCNGDANCQDKSDEKNCEVLCLIDQFRCANGQCIGKHKKCDHNVDCSDKSDELDCYPTEEPAPQATNTVGSVIGVIVTIFVSGTVYFI			associated with PTH1R as effectively as did full-length LRP6	
sclerostin: secreted protein binding to LRP6 at the extracellular domain (protein, UniProt Q9BQB4 24-213, looked up) Sclerostin: QGWQAFKNDATEIIPELGEYPEPPPELENNKTMNRAENGGRPPHHPFETKDVSEYSCRELHFTRYVTDGPCRSAKPVTELVCSGQCGPARLLPNAIGRGKWWRPSGPDFRCIPDRYRAQRVQLLCPGGEAPRARKVRLVASCKCKRLTRFHNQSELKDFGTEAARPQKGRKPRPRARSAKANQAELENAY	disrupted	disrupted		
